# Assay results from publication PMC3646814, “Tetramerization Reinforces the Dimer Interface of MnSOD” (PLoS ONE, 2013).
# Columns and labels:
# [1] = target: K184R, L185P CaMnSODc (Candida albicans); test: SEC; HPLC-SEC (TSK gel G2000SW), as-isolated proteins, 10 µM to 200 nM with respect to monomer, 10 mM potassium phosphate pH 6.7; Kd of the step dimer to monomers, from area integrals of the elution peaks
# [2] = target: K184R, L185P CaMnSODc (Candida albicans)
# [3] = target: K184R, L185P CaMnSODc (Candida albicans); test: crystal structure; hanging-drop vapor diffusion at 4°C, protein 7 mg/mL; methylated K182R, A183P ScMnSOD in 0.1 M tri-ammonium citrate pH 7, 20% PEG 3,350; unmodified K184R, L185P CaMnSODc in 2 M ammonium sulfate
# [4] = target: K184R, L185P CaMnSODc (Candida albicans); remark: listed apart in the source
# [5] = target: K184R, L185P CaMnSODc (Candida albicans); remark: listed apart in the source
# [6] = target: wild-type manganese superoxide dismutase from Candida albicans cytosol (Candida albicans); test: SEC; HPLC-SEC (TSK gel G2000SW), as-isolated proteins, 10 µM to 200 nM with respect to monomer, 10 mM potassium phosphate pH 6.7; Kd of the step dimer to monomers, from area integrals of the elution peaks
# [7] = target: the molecule itself; test: as above
# [8] = target: the molecule itself; test: crystal structure; hanging-drop vapor diffusion at 4°C, protein 7 mg/mL; methylated K182R, A183P ScMnSOD in 0.1 M tri-ammonium citrate pH 7, 20% PEG 3,350; unmodified K184R, L185P CaMnSODc in 2 M ammonium sulfate
molecule,measurement,setting,value
"K184R, L185P CaMnSODc (enzyme)",Kd,[1],2000 nM
same,stoichiometry N,[1],2
same,"pK (the pH at which the SOD activity drops by 50%), pulse radiolysis",[2],8 pH
same,stoichiometry N,[3],4
same,rate constant of O2^- dismutation by pulse radiolysis at 1 µM to 2.2 µM enzyme,[4],9.9e+08 M⁻¹ s⁻¹
same,SOD activity (pulse radiolysis) after heating at 41°C (% activity lost),[5],70
wild-type manganese superoxide dismutase from Candida albicans cytosol (enzyme),stoichiometry N,[6],2
"wild-type manganese superoxide dismutase from Saccharomyces cerevisiae mitochondria (enzyme, S. cerevisiae, UniProt P00447 27-233, looked up, Manganese superoxide dismutase of S. cerevisiae mitochondria (ScMnSOD), expressed from a 2-kb genomic BamHI fragment containing the gene; As isolated, 0.70 Mn per monomer; also called ScMnSOD; WT ScMnSOD; source: S. cerevisiae sod2Δ strain (EG110), overexpressed from YEp352-ScMnSOD, purified) KVTLPDLKWDFGALEPYISGQINELHYTKHHQTYVNGFNTAVDQFQELSDLLAKEPSPANARKMIAIQQNIKFHGGGFTNHCLFWENLAPESQGGGEPPTGALAKAIDEQFGSLDELIKLTNTKLAGVQGSGWAFIVKNLSNGGKLDVVQTYNQDTVTGPLVPLVAIDAWEHAYYLQYQNKKADYFKAIWNVVNWKEASRRFDAGKI",stoichiometry N,[7],4
"K182R, A183P ScMnSOD (enzyme, S. cerevisiae, UniProt P00447 27-233, looked up, Manganese superoxide dismutase of S. cerevisiae mitochondria (ScMnSOD) with K182R and A183P; Unmethylated form used for HPLC-SEC; as isolated, 0.71 Mn per monomer; also called RP-mutant ScMnSOD; as-isolated K182R, A183P ScMnSOD; source: S. cerevisiae sod2Δ strain (EG110), overexpressed from YEp352-ScMnSOD (mutant), purified) KVTLPDLKWDFGALEPYISGQINELHYTKHHQTYVNGFNTAVDQFQELSDLLAKEPSPANARKMIAIQQNIKFHGGGFTNHCLFWENLAPESQGGGEPPTGALAKAIDEQFGSLDELIKLTNTKLAGVQGSGWAFIVKNLSNGGKLDVVQTYNQDTVTGPLVPLVAIDAWEHAYYLQYQNKRPDYFKAIWNVVNWKEASRRFDAGKI",stoichiometry N,[7],4
"methylated K182R, A183P ScMnSOD (enzyme, S. cerevisiae, UniProt P00447 27-233, looked up, all free amino groups of the lysine residues and the N-terminus methylated (reductive methylation, confirmed by mass spectrometry), Manganese superoxide dismutase of S. cerevisiae mitochondria (ScMnSOD) with K182R and A183P; The form that was crystallised; 0.71 Mn per monomer; theoretical mass of the methylated protein 23,589 Da; also called methylated RP-mutant ScMnSOD; source: S. cerevisiae sod2Δ strain (EG110), overexpressed, purified, then reductive methylation) KVTLPDLKWDFGALEPYISGQINELHYTKHHQTYVNGFNTAVDQFQELSDLLAKEPSPANARKMIAIQQNIKFHGGGFTNHCLFWENLAPESQGGGEPPTGALAKAIDEQFGSLDELIKLTNTKLAGVQGSGWAFIVKNLSNGGKLDVVQTYNQDTVTGPLVPLVAIDAWEHAYYLQYQNKRPDYFKAIWNVVNWKEASRRFDAGKI",stoichiometry N,[8],4
